In article PMC10533412 (Nature, 2023):

Biological target: the molecule itself
Assay: SEC-MALS; single protein at 5 mg/ml, Superdex 200, 20 mM HEPES pH 7.5, 150 mM NaCl

B1: BTN2A1 B30.2 domain (domain or fragment, human)
chain: EELRWRRTFLHAVDVVLDPDTAHPDLFLSEDRRSVRRCPFRHLGESVPDNPERFDSQPCVLGRESFASGKHYWEVEVENVIEWTVGVCRDSVERKGEVLLIPQNGFWTLEMHKGQYRAVSSPDRILPLKESLCRVGVFLDYEAGDVSFYNMRDRSHIYTCPRSAFSVPVRPFFRLGCEDSPIFICPALTGANGVTVPEEGLTLHRVGTHQSL
notes: butyrophilin 2A1 (BTN2A1), human, intracellular B30.2 domain with the C-terminal tail; Homodimer by SEC-MALS and in the crystals; source: E. coli BL21 (DE3), purified (Ni-NTA, TEV cleavage, Ni-NTA or DEAE Sepharose)
stoichiometry N: 2
